Data as given in the supplement of paper PMC6757056.
± gives the standard deviation of the averaged measurements.

B1: library; a variant is named by its letters at N, in order (parent)
chain: GCUGUCACCGGUGCUUGGUACGUUAUAUUCAGCCGGUCUGAUGAGUCUNNNNNNAGACGAAACAGC

Columns and labels:
[1] = variants of: B1; assay: FACS-Seq fitted mean relative fluorescence mCherry/BFP without ligand (log10 relative fluorescence); HEK293T overexpressing SLC46A1; higher = higher reporter protein expression; conditions: without (6R,S)-folinic acid; ligand present: no
How it was run: (§1)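 Fluorescence figures are normalized fitted normal means of sequenced bin counts. Enriched, lentivirally transduced HEK293T libraries with a ribozyme-switch mCherry reporter and EF1α-BFP were held 48 h with or without ligand, then sorted into 6 mCherry/BFP bins. PCR-amplified, barcoded genomic DNA from each bin was sequenced on MiSeq. Means of log10(mCherry/BFP) were scaled to five spiked-in control ribozymes.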

[2] = variants of: B1; assay: normalized RNA/DNA level without ligand (relative to sTRSVctl = 100) (log10 (% of sTRSVctl)); HEK293T overexpressing SLC46A1; higher = less ribozyme self-cleavage, higher mRNA level; conditions: without (6R,S)-folinic acid; ligand present: no
How it was run: (§2)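 Only sequences with at least 100 DNA reads were analyzed, from HEK293T cells transfected with 4 µg per 6-well well of ribozyme switch library plasmids 72 h before RNA extraction with EDTA. Any ligand was added 1 h before transfection. RNA level was defined as RNA over DNA reads, normalized to a spiked-in non-cleaving sequence or to the top sequences, then scaled and log-transformed. The top set was 25 sequences, and the scaling was ×100 followed by log10.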

[3] = variants of: B1; assay: FACS-Seq fitted mean relative fluorescence mCherry/BFP with ligand (log10 relative fluorescence); HEK293T overexpressing SLC46A1; ligand concentration (+) FACS-Seq: 6 mM; higher = higher reporter protein expression; conditions: with (6R,S)-folinic acid; ligand present: yes
How it was run: as §1

[4] = variants of: B1; assay: normalized RNA/DNA level with ligand (relative to sTRSVctl = 100) (log10 (% of sTRSVctl)); HEK293T overexpressing SLC46A1; ligand concentration (+) RNA-Seq: 6 mM; higher = less ribozyme self-cleavage, higher mRNA level; conditions: with (6R,S)-folinic acid; ligand present: yes
How it was run: as §2

| Variant | FACS-Seq fitted mean (log10) [1] | normalized RNA/DNA level without ligand (log10) [2] | FACS-Seq fitted mean (log10) [3] | normalized RNA/DNA level with ligand (log10) [4] |
| --- | --- | --- | --- | --- |
| GGAGGC | -0.315 ± 0.075 | 1.936 ± 0.0065 | -0.531 ± 0.17 | 2.0118 ± 0.0015 |
| CGAGGG | 0.504 ± 0.034 | 1.844 ± 0.0078 | 0.672 ± 0.22 | 1.968 ± 0.011 |
| UGAGGG | 0.114 ± 0.058 | 1.657 ± 0.016 | 0.587 ± 0.016 | 1.95 ± 0.063 |
| GGAGGU | 0.445 ± 0.085 | 2.02 ± 0.033 | 0.592 ± 0.05 | 2.05 ± 0.07 |
| GGAGUA | 0.117 ± 0.042 | 1.9805 ± 0.0005 | 0.0493 ± 0.22 | 2.03 ± 0.029 |
| UGAGUA | 0.204 ± 0.015 | 1.911 ± 0.0073 | 0.422 ± 0.1 | 2 ± 0.043 |
| CGAGUG | 0.389 ± 0.14 | 1.964 ± 0.0042 | 0.341 ± 0.17 | 2.01 ± 0.032 |
| UGAGUG | 0.376 ± 0.083 | 1.652 ± 0.011 | 0.652 ± 0.081 | 1.93 ± 0.023 |
| CGAGUU | 0.1373 ± 0.00078 | 1.997 ± 0.012 | 0.394 ± 0.014 | 2 ± 0.031 |
| GGAUAA | 0.686 ± 0.051 | 1.9974 ± 0.00055 | 0.655 ± 0.074 | 2.03 ± 0.026 |
| UGAUAA | 0.48 ± 0.24 | 1.926 ± 0.019 | 0.632 ± 0.35 | 2.004 ± 0.017 |
| AGAUAA | 0.0208 ± 0.12 | 1.96 ± 0.006 | 0.14 ± 0.2 | 1.981 ± 0.012 |
| UGAUAC | 0.272 ± 0.049 | 1.984 ± 0.019 | 0.128 ± 0.094 | 2 ± 0.044 |
| AGAUCA | -0.134 ± 0.025 | 2.01 ± 0.005 | -0.625 ± 0.07 | 2 ± 0.058 |
| UGAUCG | 0.0489 ± 0.16 | 1.84 ± 0.021 | 0.0432 ± 0.082 | 1.992 ± 0.016 |
| UGAUGA | 0.447 ± 0.11 | 1.865 ± 0.0033 | 0.525 ± 0.05 | 2.01 ± 0.047 |
| AGAUGA | 0.308 ± 0.011 | 1.9723 ± 0.0012 | 0.112 ± 0.046 | 2.02 ± 0.038 |
| UGAUGG | 0.038 ± 0.0089 | 1.625 ± 0.0082 | 0.583 ± 0.093 | 1.91 ± 0.038 |
| AGAUGG | 0.589 ± 0.0066 | 1.91 ± 0.0092 | 0.62 ± 0.25 | 2.02 ± 0.028 |
| UGAUGU | 0.318 ± 0.071 | 1.93 ± 0.021 | 0.125 ± 0.22 | 2.02 ± 0.044 |
| UGAUUA | -0.918 ± 0.18 | 1.951 ± 0.0029 | -0.48 ± 0.39 | 2.01 ± 0.037 |
| AGAUUA | 0.568 ± 0.048 | 2.001 ± 0.018 | 0.535 ± 0.036 | 2.01 ± 0.037 |
| GGAUUC | 0.835 ± 0.03 | 2.045 ± 0.0076 | 0.746 ± 0.041 | 2.021 ± 0.016 |
| AGAUUC | 0.551 ± 0.08 | 2.05 ± 0.0077 | 0.54 ± 0.24 | 2.04 ± 0.042 |

| Variant | FACS-Seq fitted mean (log10) [1] | normalized RNA/DNA level without ligand (log10) [2] | FACS-Seq fitted mean (log10) [3] | normalized RNA/DNA level with ligand (log10) [4] |
| --- | --- | --- | --- | --- |
| UGAUUG | 0.168 ± 0.056 | 1.768 ± 0.0099 | 0.541 ± 0.042 | 1.96 ± 0.025 |
| GGAUUU | 0.647 ± 0.23 | 2.02 ± 0.034 | 0.596 ± 0.19 | 2.01 ± 0.048 |
| UGCAAA | 0.549 ± 0.013 | 1.957 ± 0.0057 | 0.532 ± 0.037 | 1.98 ± 0.034 |
| AGCAAA | 0.455 ± 0.047 | 1.979 ± 0.004 | 0.532 ± 0.21 | 2 ± 0.028 |
| CGCAAC | 0.453 ± 0.13 | 2.027 ± 0.0066 | 0.417 ± 0.14 | 1.99 ± 0.013 |
| UGCAAU | 0.173 ± 0.069 | 1.841 ± 0.0071 | 0.456 ± 0.15 | 1.973 ± 0.016 |
| GGCACC | 0.275 ± 0.084 | 2.018 ± 0.0066 | -0.0119 ± 0.33 | 2.017 ± 0.0025 |
| GGCACU | -0.00197 ± 0.025 | 2.08 ± 0.04 | -0.0531 ± 0.17 | 2.02 ± 0.036 |
| AGCACU | 0.282 ± 0.032 | 2.02 ± 0.025 | 0.113 ± 0.16 | 2 ± 0.028 |
| UGCAGA | -0.262 ± 0.068 | 1.899 ± 0.008 | -0.0873 ± 0.14 | 1.995 ± 0.0057 |
| AGCAGA | 0.0194 ± 0.039 | 1.98 ± 0.0025 | -0.229 ± 0.27 | 2.02 ± 0.029 |
| CGCAGC | 0.491 ± 0.09 | 2.01 ± 0.033 | 0.645 ± 0.4 | 2.01 ± 0.031 |
| UGCAGG | -0.138 ± 0.052 | 1.68 ± 0.029 | -0.00907 ± 0.1 | 1.909 ± 0.017 |
| CGCAUA | 0.387 ± 0.012 | 1.98 ± 0.0046 | 0.156 ± 0.073 | 2 ± 0.059 |
| GGCAUA | 0.173 ± 0.12 | 2.032 ± 0.012 | 0.286 ± 0.1 | 2.01 ± 0.027 |
| UGCAUG | 0.298 ± 0.025 | 1.734 ± 0.0064 | 0.712 ± 0.11 | 1.97 ± 0.026 |
| CGCAUU | 0.241 ± 0.21 | 2.015 ± 0.0023 | 0.576 ± 0.31 | 1.99 ± 0.039 |
| UGCAUU | 0.0991 ± 0.29 | 1.987 ± 0.01 | -0.057 ± 0.47 | 2.01 ± 0.043 |
| GGCCAA | 0.479 ± 0.052 | 2.045 ± 0.013 | 0.409 ± 0.049 | 2.024 ± 0.0077 |
| UGCCAA | 0.194 ± 0.021 | 1.956 ± 0.015 | 0.168 ± 0.2 | 2.01 ± 0.0051 |
| UGCCAC | 0.366 ± 0.066 | 1.985 ± 0.017 | 0.438 ± 0.13 | 1.977 ± 0.013 |
| CGCCAG | 0.509 ± 0.022 | 1.998 ± 0.013 | 0.216 ± 0.15 | 1.998 ± 0.016 |
| GGCCAU | 0.522 ± 0.091 | 2.05 ± 0.023 | 0.337 ± 0.19 | 2.01 ± 0.063 |
| UGCCGG | 0.22 ± 0.012 | 1.92 ± 0.011 | 0.707 ± 0.05 | 2.006 ± 0.018 |

| Variant | FACS-Seq fitted mean (log10) [1] | normalized RNA/DNA level without ligand (log10) [2] | FACS-Seq fitted mean (log10) [3] | normalized RNA/DNA level with ligand (log10) [4] |
| --- | --- | --- | --- | --- |
| AGCCGU | 0.507 ± 0.044 | 2.018 ± 0.017 | 0.3424 ± 0.0012 | 2.0145 ± 0.00041 |
| AGCCUA | 0.465 ± 0.015 | 2.021 ± 0.012 | 0.612 ± 0.31 | 2.01 ± 0.021 |
| UGCCUG | 0.68 ± 0.017 | 1.875 ± 0.016 | 0.78 ± 0.085 | 2.02 ± 0.021 |
| AGCCUG | 0.71 ± 0.23 | 2.01 ± 0.027 | 0.405 ± 0.12 | 2.05 ± 0.051 |
| GGCGAC | 0.216 ± 0.01 | 1.998 ± 0.003 | 0.128 ± 0.013 | 1.989 ± 0.0031 |
| UGCGAC | 0.375 ± 0.053 | 1.979 ± 0.018 | 0.26 ± 0.29 | 2.02 ± 0.034 |
| UGCGAG | 0.31 ± 0.21 | 1.71 ± 0.027 | -0.231 ± 0.053 | 1.96 ± 0.058 |
| GGCGAU | 0.444 ± 0.0094 | 2.07 ± 0.027 | 0.55 ± 0.15 | 2.037 ± 0.015 |
| UGCGAU | 0.213 ± 0.026 | 1.85 ± 0.019 | -0.0289 ± 0.033 | 1.98 ± 0.029 |
| AGCGCA | 0.49 ± 0.034 | 2.01 ± 0.021 | 0.548 ± 0.31 | 2.04 ± 0.029 |
| UGCGCU | 0.293 ± 0.033 | 2.043 ± 0.0054 | 0.428 ± 0.044 | 2.04 ± 0.03 |
| UGCGGG | -0.0146 ± 0.0024 | 1.788 ± 0.011 | 0.675 ± 0.21 | 1.99 ± 0.043 |
| AGCGGU | 0.638 ± 0.18 | 1.952 ± 0.013 | 0.522 ± 0.022 | 2 ± 0.043 |
| UGCGUG | -0.00857 ± 0.093 | 1.6768 ± 0.0013 | 0.36 ± 0.1 | 1.95 ± 0.045 |
| UGCUAA | 0.427 ± 0.062 | 1.97 ± 0.026 | 0.537 ± 0.11 | 2.018 ± 0.016 |
| UGCUAG | 0.312 ± 0.12 | 1.76 ± 0.028 | 0.441 ± 0.057 | 1.972 ± 0.014 |
| UGCUCG | 0.493 ± 0.023 | 1.84 ± 0.06 | 0.49 ± 0.049 | 1.96 ± 0.072 |
| UGCUCU | 0.473 ± 0.12 | 2.056 ± 0.014 | 0.2 ± 0.019 | 2.06 ± 0.029 |
| UGCUGA | 0.285 ± 0.21 | 2.02 ± 0.024 | 0.321 ± 0.12 | 2.05 ± 0.043 |
| CGCUGC | 0.0944 ± 0.13 | 2.091 ± 0.012 | -0.0623 ± 0.071 | 2.0496 ± 0.0017 |
| UGCUGG | 0.145 ± 0.014 | 1.85 ± 0.025 | 0.325 ± 0.18 | 2.02 ± 0.065 |
| GGCUUG | 0.434 ± 0.019 | 2.078 ± 0.012 | 0.292 ± 0.34 | 2.049 ± 0.018 |
| UGCUUG | 0.46 ± 0.098 | 1.76 ± 0.018 | 0.655 ± 0.047 | 1.96 ± 0.034 |
| AGCUUG | 0.529 ± 0.0056 | 1.964 ± 0.002 | 0.349 ± 0.32 | 2.03 ± 0.036 |
